Data on two substances can be found in US20200055914A1.

Data set [1] can be described thus: size-exclusion chromatography, zinc- and phenol-free (self-association control). For orientation: SEC sorts molecules by how far they enter the pores of the column.
For data set [2], the target named is lectin-purified insulin receptor (isoform B) (UniProt P06213). As to the kind of experiment: receptor-binding assay with lectin-purified insulin receptor.

Take Lys^B28, Pro^B29 (Lispro) insulin: the “molecular weight by SEC” value in data set [1] is recorded as “The molecular weight (MW; or molecular mass) of the species was 3.1 kDa”.

In data set [2], “Trp^B26, Orn^B29 insulin analogue (ligand)” yielded an affinity relative to human insulin of 50%.
